# Biological target: Bovine dermal collagen type I (bovine) (UniProt P02453)
# Experiment: ELISA
# UniProt P02453, sequence (P02453 162-1217, chain 1 of 2): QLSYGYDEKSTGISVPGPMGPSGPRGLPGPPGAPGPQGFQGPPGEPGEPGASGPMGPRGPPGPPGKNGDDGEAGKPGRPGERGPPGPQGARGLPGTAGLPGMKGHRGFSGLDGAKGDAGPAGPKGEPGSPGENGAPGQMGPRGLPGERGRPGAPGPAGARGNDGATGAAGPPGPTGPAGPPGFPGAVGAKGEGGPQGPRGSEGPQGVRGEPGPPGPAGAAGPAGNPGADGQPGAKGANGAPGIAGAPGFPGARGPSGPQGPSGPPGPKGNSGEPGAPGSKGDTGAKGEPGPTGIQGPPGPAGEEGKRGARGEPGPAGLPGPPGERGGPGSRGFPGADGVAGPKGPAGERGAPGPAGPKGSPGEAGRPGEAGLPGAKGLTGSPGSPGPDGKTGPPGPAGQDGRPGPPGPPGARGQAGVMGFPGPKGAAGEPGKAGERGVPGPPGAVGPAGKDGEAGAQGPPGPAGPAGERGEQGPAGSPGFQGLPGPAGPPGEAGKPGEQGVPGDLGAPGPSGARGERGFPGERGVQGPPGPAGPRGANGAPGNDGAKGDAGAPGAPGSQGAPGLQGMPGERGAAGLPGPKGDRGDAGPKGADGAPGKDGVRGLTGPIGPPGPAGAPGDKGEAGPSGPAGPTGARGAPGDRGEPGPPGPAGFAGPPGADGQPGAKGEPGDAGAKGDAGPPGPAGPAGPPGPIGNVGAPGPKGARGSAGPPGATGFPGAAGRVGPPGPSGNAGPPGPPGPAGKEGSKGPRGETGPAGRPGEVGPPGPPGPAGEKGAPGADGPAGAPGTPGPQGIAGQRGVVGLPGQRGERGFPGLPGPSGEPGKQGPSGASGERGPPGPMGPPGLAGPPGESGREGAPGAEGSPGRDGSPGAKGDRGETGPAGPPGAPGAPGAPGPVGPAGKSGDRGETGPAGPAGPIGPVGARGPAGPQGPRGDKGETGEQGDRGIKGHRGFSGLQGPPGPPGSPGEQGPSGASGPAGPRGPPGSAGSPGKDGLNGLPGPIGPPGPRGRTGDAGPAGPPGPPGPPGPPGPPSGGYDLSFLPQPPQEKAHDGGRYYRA
# UniProt P02453, sequence (P02465 80-1117, chain 2 of 2, further chain): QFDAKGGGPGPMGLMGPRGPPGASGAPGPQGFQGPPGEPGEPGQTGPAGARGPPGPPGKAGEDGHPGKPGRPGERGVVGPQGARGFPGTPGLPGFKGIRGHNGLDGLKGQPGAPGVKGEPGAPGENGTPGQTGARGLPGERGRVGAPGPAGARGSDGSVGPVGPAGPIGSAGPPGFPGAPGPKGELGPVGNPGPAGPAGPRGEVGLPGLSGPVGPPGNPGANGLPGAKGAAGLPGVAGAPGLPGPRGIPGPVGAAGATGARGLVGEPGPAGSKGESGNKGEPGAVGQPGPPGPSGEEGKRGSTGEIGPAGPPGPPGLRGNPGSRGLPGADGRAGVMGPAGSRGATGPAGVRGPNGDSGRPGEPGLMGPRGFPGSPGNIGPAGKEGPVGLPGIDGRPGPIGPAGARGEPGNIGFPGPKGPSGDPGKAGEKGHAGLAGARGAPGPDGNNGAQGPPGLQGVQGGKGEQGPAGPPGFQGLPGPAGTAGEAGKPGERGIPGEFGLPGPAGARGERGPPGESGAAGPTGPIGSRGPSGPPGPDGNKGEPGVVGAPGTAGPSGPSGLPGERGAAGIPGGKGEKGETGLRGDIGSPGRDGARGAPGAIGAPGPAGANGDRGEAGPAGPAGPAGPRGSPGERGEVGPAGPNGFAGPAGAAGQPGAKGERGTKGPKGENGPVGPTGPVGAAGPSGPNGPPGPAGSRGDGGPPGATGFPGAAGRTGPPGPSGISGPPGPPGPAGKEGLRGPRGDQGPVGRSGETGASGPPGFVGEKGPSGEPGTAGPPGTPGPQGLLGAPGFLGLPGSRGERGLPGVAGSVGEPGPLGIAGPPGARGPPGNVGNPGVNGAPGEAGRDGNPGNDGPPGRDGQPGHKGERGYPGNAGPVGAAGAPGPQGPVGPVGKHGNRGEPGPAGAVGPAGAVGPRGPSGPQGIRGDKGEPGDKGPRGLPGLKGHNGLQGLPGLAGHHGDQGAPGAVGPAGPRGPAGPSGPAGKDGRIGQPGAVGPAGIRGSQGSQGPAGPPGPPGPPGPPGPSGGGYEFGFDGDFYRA
row,Substance,IC50
1,Fc-tagged extracellular domain of human DDR1 (dimeric DDR1-Fc) (from UniProt Q08345 21-417) (Fc fusion),7.85 nM
2,Antibody (anti-Fc) induced oligomers of DDR1-Fc (from UniProt Q08345 21-417) (complex),2.5 nM

# From publication PMC3785576
